The source of these data is US20240210403A1 (MARTELL DIAGNOSTIC LABORATORIES, published 2024).

In this test the target is T1, human HER2 protein present in serum samples (human, UniProt P04626 23-652).
T1 construct: extracellular domain; Endogenous analyte in human sera; also called sHER2; serum HER2
Kind of test: sandwich ELISA, 1B7 capture/1G5-biotin detection. In general terms: An ELISA detects its analyte on a solid surface through an enzyme-linked reagent.

Protocol: Standards, controls and samples were pipetted into the wells, and any HER2 present was bound by the immobilized antibody. […] Following a wash to remove unbound conjugate, a substrate solution was added to the wells, and color developed in proportion to the amount of HER2 bound. After color development was stopped, the absorbance was measured using a microplate spectrophotometer.
Sample Buffer/Antibody Diluent (10% Casein in 1×PBS) was prepared (˜40 mL/plate). After incubation, plates were washed on a plate washer as described herein. 245 μL of Sample Buffer then was pipetted into a labeled snap-cap tube for each patient sample to be tested, as well as for each standard and control. A 1:50 dilution of each patient sample as well as each standard and control was generated (e.g., 5 μL of each sample in 95 μL of Sample Buffer). 100 μL of each sample (patient, standard, control, and blank (i.e., 100 μL of Sample Buffer)) was pipetted into their respective wells as indicated on the plate map. The wells were covered with an adhesive plate cover, placed in a microplate shaker (Corning LSE Digital Microplate Shaker) at 500 rpms for 1 min, and then incubated at room temperature for 1 hour.
After incubation, plates were washed on a plate washer as described herein. […] 100 μL was pipetted into each well and the plate was covered with an adhesive plate cover. […]

B1: 1B7 anti-HER2 rabbit monoclonal antibody (antibody, V domains shown)
VH: QSVEESGGRLVTPGTPLTLTCTVSGIDLSDYAMGWVRQAPGKGLEYIGIISSSGNTHYARWARGRFTISKTSSTTVDLKMTSLTTEDTATYFCARNYPGYANYALWGQGTLVTVSS
VL: RIVMTQTPASVSAAVGGTVTIKCQASESISNWLSWYQQKPGQPPKLLIYRASTLASGVPSRFSGSGSGTEYTLTISDLECADAATYYCQQDYIYNDIDNAFGGGTEVVVKG
notes: Recombinant rabbit IgG (gamma 1 heavy, kappa 1 light) expressed in 293F cells; Used as the coated capture antibody; also called Capture Antibody (1B7; Yurogen)
Take B1: the binding result is listed as “binds”.
